The values below come from paper PMC5497784 (Cell metabolism, 2017).

The data set deals with the molecule itself. The experiment in a line: cross-linking.

B1: IRE1α* (cytosolic kinase and RNase domains of human IRE1α, residues 469-977) (domain or fragment, UniProt O75460 469-977, looked up)
chain: HQQQQLQHQQFQKELEKIQLLQQQQQQLPFHPPGDTAQDGELLDTSGPYSESSGTSSPSTSPRASNHSLCSGSSASKAGSSPSLEQDDGDEETSVVIVGKISFCPKDVLGHGAEGTIVYRGMFDNRDVAVKRILPECFSFADREVQLLRESDEHPNVIRYFCTEKDRQFQYIAIELCAATLQEYVEQKDFAHLGLEPITLLQQTTSGLAHLHSLNIVHRDLKPHNILISMPNAHGKIKAMISDFGLCKKLAVGRHSFSRRSGVPGTEGWIAPEMLSEDCKENPTYTVDIFSAGCVFYYVISEGSHPFGKSLQRQANILLGACSLDCLHPEKHEDVIARELIEKMIAMDPQKRPSAKHVLKHPFFWSLEKQLQFFQDVSDRIEKESLDGPIVKQLERGGRAVVKMDWRENITVPLQTDLRKFRTYKGGSVRDLLRAMRNKKHHYRELPAEVRETLGSLPDDFVCYFTSRFPHLLAHTYRAMELCSHERLFQPYYFHEPPEPQPPVTPDAL
Turning to B1, the binding result is recorded as “binds”.
